# Measurements reported in US20250027068A1 (published 2025).
# Changes are numbered by the printed parent chain.
# B1: PRT-207 (enzyme)
# chain: MEVVEVWPYGQNPNGKTEILSQTEDSESLQRLRDIEDFQAEKKKEGVVYTKWLDGVDVDDHDFRKIVDGNIAYYATPLLNGRGFYDINKDFNRDSDKCAAAVAANMFHYWLDRNRDNVDRFLKQNPEKHGIIELPDGQLKLSDFLNTYESDNGYRDKSKLFDFISNNFNGPVWTDKLLDNYINGYAYNYKYGRTIEDPTKNTSKINFFKEVFNEKILTNNHSIRNYNTFSDLLSEALYTGKAIGLSYGPAGLRHSLGHIISVWGADLDADGNVVAIYVTDSDDKKLTIGDERVGLKRYKVSSDDENRLRLTAYEETHNTGGQIRGIWTLDTGKQAWADYFDKTEQTGTDQAEQLEHHHHHH
# B2: PRT-208 (enzyme)
# chain: MEVVEVWPYGQNPNGKTEILSQTEDSESLQRLRDIEDFQAEKKKENVVYTKWLDGVTVKDHDFRKIVDGNIAYYATPLLNGRGFYDINKDFNRDSDKCAAAVAANMFHYWLDINRDNVDRFLRQNPEKHGIIELPDGQLKLSDFLNTYESDDGYRDKSKLFDFISNNFNGPVWTDKLLDNYINGYGYNYKYGRTIEDPTKNTSKINFFKEVFNEKILTDNHSIRDQNEFSDLLSEALYTGKAIGLSYGPAGLRHSLGHIISVWGADLDADGNVVAIYVTDSDDKKLTIGDERVGLKRYKISYDDEGRARLTAYEEKDNTGGQIRGLWTLDTGKQAWADYFDKTEQTGTDQAEQLEHHHHHH
# B3: PRT-209 (enzyme)
# chain: MEVVEVWPYGQNPNGKTEILSQTEDSESLQRLRDIEDFQAEKKKQGVVYTKWLDGVDVDDHDFRKIVDGNIAYYATPLLNGKGFYDINKDFNRDSDKCAAAVAANMFHYWLDQNRDNVDRFLRQNPEKHGIIELPDGQLKLSDFLNTYESDNGYRDKSKLFDFISNNFNGPVWTDKLLDNYINGYAYNYKYGRTIEDPTKNTSKINFFKDVFNEKILTNIHSIRNYNTFSNLLSEALYTGKAIGLSYGPAGLRHSLGHIISVWGADLDEDGNVVAIYVTDSDDKKLTIGDERVGLKRYKISTDDEGRARLTAYEENDNTGGEIRGLYTLDTGKQAWADYFDKTEQTGTDQAEQLEHHHHHH
# B4: PRT-210 (enzyme)
# chain: MEVVEVWPYGQNPNGKTEILSQTEDSESLQRLRDIEDFQAEKKKQNVVYTKWLDGVTVDDHDFRKITDGNTAYYATPLLNGRGFYDINKDFNRDSDKCAAAVAANMFHYWLDQNRDNVDRFLKQNPEKHGIIELPDGQLKLSDFLNTYESDDGYRDKSKLFDFISNNFNGPVWTDKLLDNYINGYAYNYKYGRTIEDPTKNTSKINFFKEVFNEKLLTNNHSIRNQNEFSDLLSEALYTGKAIGLSYGPAGLRHSLGHIISVWGADFDADGNVVAIYVTDSDDKKLTIGDERVGLKRYKISSDDEGRARLTAYTEKHNTGGQIRGLYTLDTGKQEWADYFDKTEQTGTDQAEQLEHHHHHH
# B5: PRT-211 (enzyme)
# chain: B3 chain with Y327W
# Biological target: pooled human IgG (human)
# Assay: cell-based or functional assay
# Also: test concentration or dose not given here.
binder,measurement,value
B1,Enzyme Activity Endpoint Assay (purified): Fab′2,0 ng/µL
same,Enzyme Activity Endpoint Assay (purified): Fc,249 ng/µL
same,Enzyme Activity Endpoint Assay (purified): IgG,1290 ng/µL
same,Enzyme Activity Endpoint Assay (purified): scIgG,287 ng/µL
B2,Enzyme Activity Endpoint Assay (purified): Fab′2,0 ng/µL
same,Enzyme Activity Endpoint Assay (purified): Fc,153 ng/µL
same,Enzyme Activity Endpoint Assay (purified): IgG,1700 ng/µL
same,Enzyme Activity Endpoint Assay (purified): scIgG,113 ng/µL
B3,Enzyme Activity Endpoint Assay (purified): Fab′2,0 ng/µL
same,Enzyme Activity Endpoint Assay (purified): Fc,124 ng/µL
same,Enzyme Activity Endpoint Assay (purified): IgG,1670 ng/µL
same,Enzyme Activity Endpoint Assay (purified): scIgG,71 ng/µL
B4,Enzyme Activity Endpoint Assay (purified): Fab′2,0 ng/µL
same,Enzyme Activity Endpoint Assay (purified): Fc,87 ng/µL
same,Enzyme Activity Endpoint Assay (purified): IgG,1780 ng/µL
same,Enzyme Activity Endpoint Assay (purified): scIgG,25 ng/µL
B5,Enzyme Activity Endpoint Assay (purified): Fab′2,0 ng/µL
same,Enzyme Activity Endpoint Assay (purified): Fc,68 ng/µL
same,Enzyme Activity Endpoint Assay (purified): IgG,2190 ng/µL
same,Enzyme Activity Endpoint Assay (purified): scIgG,0 ng/µL
